Reference: PMC3527528

Target: Ssl1 (S. sviceus laccase 1), small two-domain laccase from Streptomyces sviceus, without the twin-arginine signal peptide (Streptomyces sviceus)
Assay: SEC-MALS; Superdex 200 10/300 GL, 0.5 mL/min, 50 mM potassium phosphate pH 7.5; 100 µL of Ssl1 at 7.5 mg/mL injected; multi-angle static light scattering with refractometer

Ssl1 (S. sviceus laccase 1), small two-domain laccase from Streptomyces sviceus, without the twin-arginine signal peptide (enzyme)
stoichiometry N: 3
